Values of other authors in article PMC9837045.
“And” between values parts separate entries of the source, which are not always exact repeats. Equal values may be shown once. Read-outs that look alike come from different tables or passages of the source.

Legend:
[1] = target: Activin A (Homo sapiens) (UniProt P08476); assay: SPR
[2] = target: BMP9 (Homo sapiens) (UniProt Q9UK05); assay: SPR
[3] = target: BMP9 (Homo sapiens) (UniProt Q9UK05)
[4] = target: BMP9 (Homo sapiens) (UniProt Q9UK05); remark: listed apart in the source
[5] = target: BMP9 (Homo sapiens) (UniProt Q9UK05); remark: listed apart in the source

Chain of UniProt Q9UK05 (Q9UK05 320-429): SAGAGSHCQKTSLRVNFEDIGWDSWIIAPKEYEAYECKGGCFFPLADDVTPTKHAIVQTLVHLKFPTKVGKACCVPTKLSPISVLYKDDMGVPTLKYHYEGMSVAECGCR
Chain of UniProt P08476 (P08476 311-426): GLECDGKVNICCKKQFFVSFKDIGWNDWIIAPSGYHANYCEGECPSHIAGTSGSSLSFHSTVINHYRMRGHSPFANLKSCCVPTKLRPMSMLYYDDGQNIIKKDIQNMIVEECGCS

| Substance | Kd [1] [nM] | other results |
| --- | --- | --- |
| ACVR2A ECD (from UniProt P27037) | 5.7 | – |
| ACVR2B ECD (from UniProt Q13705) | 1.1 | – |
| ALK1-ECD ECD (from UniProt P37023) | – | Kd [3]: 0.0716 nM |
| ALK1-Fc ECD (from UniProt P37023) | – | Kd [2]: 0.0313 nM; Kd [4]: 0.0481 nM and 0.0455 nM |
| ALK2-Fc ECD (from UniProt Q04771) | – | Kd [5]: 83 nM |
| BMPR2 ECD (from UniProt Q13873) | 59 | – |
| BMPR2-Fc ECD (from UniProt Q13873) | 14 | – |

Further lines, with some results ahead:

| Kd [1] [nM] | Substance | other results |
| --- | --- | --- |
| 0.0125 | (ACVR2B)2-Fc ECD (from UniProt Q13705) | – |
| 0.13 | ACVR2A-Fc ECD (from UniProt P27037) | – |
| 0.108 | ACVR2B-Fc (single ECD) ECD (from UniProt Q13705) | – |
| 0.0092 | ACVR2B-Fc ECD (from UniProt Q13705) | Kd [2]: 0.033 nM and 0.116 nM |
